Results as given in paper PMC10085699.
Changes are numbered by the printed parent chain.

Tests used:
SETX-HD-DE/AA = biological target: T1, SETX-HD-DE/AA (Homo sapiens, UniProt Q7Z333 1674-2677, D2181A;E2182A); assay: EMSA
T1 sequence: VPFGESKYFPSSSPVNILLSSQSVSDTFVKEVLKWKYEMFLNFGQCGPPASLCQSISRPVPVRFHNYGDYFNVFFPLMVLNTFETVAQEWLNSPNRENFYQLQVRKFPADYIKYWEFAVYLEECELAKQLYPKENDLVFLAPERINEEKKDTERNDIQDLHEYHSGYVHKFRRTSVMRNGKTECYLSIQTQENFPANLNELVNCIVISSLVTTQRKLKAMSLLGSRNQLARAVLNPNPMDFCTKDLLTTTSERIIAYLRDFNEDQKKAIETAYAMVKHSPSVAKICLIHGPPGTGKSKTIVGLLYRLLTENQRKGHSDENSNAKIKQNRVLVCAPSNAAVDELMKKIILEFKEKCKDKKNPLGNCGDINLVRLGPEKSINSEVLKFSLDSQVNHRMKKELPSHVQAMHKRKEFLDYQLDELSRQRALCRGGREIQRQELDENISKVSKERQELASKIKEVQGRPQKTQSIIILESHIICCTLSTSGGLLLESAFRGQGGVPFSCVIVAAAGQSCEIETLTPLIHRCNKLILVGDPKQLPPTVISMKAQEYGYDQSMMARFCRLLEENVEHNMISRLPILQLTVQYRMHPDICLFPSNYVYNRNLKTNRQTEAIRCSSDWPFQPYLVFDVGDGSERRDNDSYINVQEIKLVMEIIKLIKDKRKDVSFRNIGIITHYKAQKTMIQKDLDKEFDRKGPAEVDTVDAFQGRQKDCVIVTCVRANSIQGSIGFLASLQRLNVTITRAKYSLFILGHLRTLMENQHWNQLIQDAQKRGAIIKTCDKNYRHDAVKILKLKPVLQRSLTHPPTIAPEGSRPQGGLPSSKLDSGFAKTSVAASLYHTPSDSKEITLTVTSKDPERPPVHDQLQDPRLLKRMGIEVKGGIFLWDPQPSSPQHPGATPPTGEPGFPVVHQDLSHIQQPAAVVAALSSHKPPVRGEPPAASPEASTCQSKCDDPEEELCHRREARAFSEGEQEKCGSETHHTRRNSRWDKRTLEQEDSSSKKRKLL

SETX-HD-R/H = biological target: T2, SETX-HD-R/H (Homo sapiens, UniProt Q7Z333 1674-2677, R2136H); assay: EMSA
T2 sequence: T1 sequence with R463H, A508D, A509E

B1: ssRNA pRMS678 (61 nt) (ssRNA)
RNA: UUGUCUUCUCAUAAAUUUAAUCCCCGUACGCUUAUACUCCUUUAACUACCCAGUCUUCCCG
- binding result (SETX-HD-DE/AA): binds
- binding result (SETX-HD-R/H): binds
